According to article PMC5526940 (Scientific Reports, 2017):

T1: Phaseolus vulgaris leucoagglutinin (Phaseolus vulgaris, UniProt P05087 21-272, TRITC label)
T1 construct: Phaseolus vulgaris leucoagglutinin; also called PHA-L; source: bought: EY Laboratories or Vector Laboratories (TRITC-labelled)
T1 sequence: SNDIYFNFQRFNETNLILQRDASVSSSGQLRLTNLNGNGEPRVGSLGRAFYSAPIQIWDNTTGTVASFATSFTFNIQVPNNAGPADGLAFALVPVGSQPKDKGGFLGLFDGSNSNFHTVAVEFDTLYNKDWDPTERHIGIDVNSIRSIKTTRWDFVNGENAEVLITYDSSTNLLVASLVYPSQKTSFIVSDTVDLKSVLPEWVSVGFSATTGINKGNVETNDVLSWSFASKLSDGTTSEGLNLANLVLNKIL

T2: chicken egg white ovalbumin (chicken, UniProt P01012 1-386)
T2 construct: Printed on the microarray at 0.5 mg/mL; source: bought: Sigma-Aldrich
T2 sequence (looked up): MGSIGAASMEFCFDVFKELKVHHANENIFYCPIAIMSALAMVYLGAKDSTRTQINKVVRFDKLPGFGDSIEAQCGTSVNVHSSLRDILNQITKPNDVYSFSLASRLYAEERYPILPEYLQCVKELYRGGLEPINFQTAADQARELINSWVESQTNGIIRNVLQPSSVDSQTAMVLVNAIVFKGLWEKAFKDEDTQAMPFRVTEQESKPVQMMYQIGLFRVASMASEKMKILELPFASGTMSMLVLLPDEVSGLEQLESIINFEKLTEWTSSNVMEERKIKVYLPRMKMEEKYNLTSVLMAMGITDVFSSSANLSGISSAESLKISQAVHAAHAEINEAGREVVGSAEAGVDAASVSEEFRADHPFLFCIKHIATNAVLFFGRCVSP

B1: Phaseolus vulgaris erythroagglutinin (natural protein)
chain: ASQTSFSFQRFNETNLILQRDATVSSKGQLRLTNVNDNGEPTLSSLGRAFYSAPIQIWDNTTGAVAASPTSFTFNIDVPNNSGPADGLAFVLLPVGSQPKDKGGLLGLFNNYKYDSNAHTVAVEFDTLYNVHWDPKPRHIGIDVNSIKSIKTTTWDFVKGENAEVLITYDSSTKLLVASLVYPSLKTSFIVSDTVDLKSVLPEWVIVGFTATTGITKGNVETNDILSWSFASKLSDGTTSEALNLANFALNQIL
modifications: TRITC label
notes: Phaseolus vulgaris erythroagglutinin; also called PHA-E; source: bought: EY Laboratories or Vector Laboratories (TRITC-labelled)

Tests used:
Assay in all cases: peptide or protein array
Settings in all cases: both partners purified
[1] = biological target: B1
[2] = biological target: T1, Phaseolus vulgaris leucoagglutinin
[3] = biological target: T2, chicken egg white ovalbumin

Binder | binding result [1] | binding result [2] | binding result [3]
chicken egg white ovomucoid (natural protein, UniProt P01005 25-210, looked up, Printed on the microarray at 0.5 mg/mL; also called OVM; source: bought: Sigma-Aldrich) AEVDCSRFPNATDKEGKDVLVCNKDLRPICGTDGVTYTNDCLLCAYSIEFGTNISKEHDGECKETVPMNCSSYANTTSEDGKVMVLCNRAFNPVCGTDGVTYDNECLLCAHKVEQGASVDKRHDGGCRKELAAVSVDCSEYPKPDCTAEDRPLCGSDNKTYGNKCNFCNAVVESNGTLTLSHFGKC | binds | binds | 
B1 |  |  | binds
